Source: patent US6835382B2, “Ii peptide therapeutics to enhance antigen presentation” (University of Massachusetts, priority 1996, dated 2004)
Non-standard residues stand in square brackets, D forms with d. hArg = N=C(N)NCCCC[C@H](N)C(=O)O

Biological target: T1, murine E^d MHC class II allele (Mus musculus, UniProt P01904+P01915)
T1 sequence (P01904 26-255): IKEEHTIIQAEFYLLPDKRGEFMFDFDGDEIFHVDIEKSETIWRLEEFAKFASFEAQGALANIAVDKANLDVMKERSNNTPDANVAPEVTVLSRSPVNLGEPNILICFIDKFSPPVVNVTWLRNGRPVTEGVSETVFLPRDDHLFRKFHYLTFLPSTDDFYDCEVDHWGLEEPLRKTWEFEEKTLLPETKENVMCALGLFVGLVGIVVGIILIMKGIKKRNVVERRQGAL
T1 sequence (P01915 27-264 limits assumed): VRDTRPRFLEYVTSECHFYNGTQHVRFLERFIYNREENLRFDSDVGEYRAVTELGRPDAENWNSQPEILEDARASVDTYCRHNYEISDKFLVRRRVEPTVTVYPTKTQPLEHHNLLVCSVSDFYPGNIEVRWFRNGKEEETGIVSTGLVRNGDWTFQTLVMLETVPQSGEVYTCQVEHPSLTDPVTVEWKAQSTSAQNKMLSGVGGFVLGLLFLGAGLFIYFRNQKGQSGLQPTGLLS
Experiment: simultaneous assay, E^d allele (A20 APC, G28.C9 T hybridoma, HEL106-116; HT-2 [3H]TdR readout)
Assay type: cell-based
Parameters: The A20 and CH27 B cell lymphoma lines express H-2^d and H-2^k alleles, respectively; endogenous in cells; host or cells: A20 B cell lymphoma (mitomycin C-treated or paraformaldehyde-fixed)
Summary of the method: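 Antigenic peptide, mitomycin C-treated APC, effector compound and allele-restricted T hybridoma cultured together for 24 h. Supernatant then transferred to interleukin-dependent HT-2 cells. T cell activation quantified as [3H]TdR uptake by HT-2 cells.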

[1] = Table 7, AE peptide 64 μM, supernatant 1:4
[2] = Table 15, AE peptide 16 μM, supernatant 1:4
[3] = Table 9, AE peptide 64 μM, supernatant 1:4
[4] = Table 16, AE peptide 4 μM, supernatant 1:8
[5] = Table 4, AE109 homolog 64 μM, supernatant 1:2

Ac-LDSLRMKLPKSAK-NH2 [AE153]
Times Baseline Response, E^d (Table 2, AE peptide 64 μM, 0.05 μM HEL106-116, supernatant 1:2): 8.5

Ac-LRMK HArg PK-NH2 (Ac-LRMK[hArg]PK-NH2; SMILES CSCC[C@H](NC(=O)[C@H](CCCNC(=N)N)NC(=O)[C@H](CC(C)C)NC(C)=O)C(=O)N[C@@H](CCCCN)C(=O)N[C@@H](CCCCNC(=N)N)C(=O)N1CCC[C@H]1C(=O)N[C@@H](CCCCN)C(N)=O) [AE227]
Times Baseline Response, E^d [1]: 8.1 | Times Baseline Response, E^d [2]: 32.3

Ac-LRMKLPK-NH2 [AE114]
Times Baseline Response, E^d (Table 1, AE peptide 16 μM (second value), 0.4 μM HEL106-116, supernatant 1:4): 26.0 | Times Baseline Response, E^d (Table 1, AE peptide 64 μM (first value), 0.4 μM HEL106-116, supernatant 1:4): 39.8 | Times Baseline Response, Ed (Table 3, AE peptide 64 μM, supernatant 1:4): 10.0 | Times Baseline Response, E^d (Table 5, AE peptide 64 μM, supernatant 1:4): 10.0 | Times Baseline Response, E^d (Table 6, AE peptide 64 μM, supernatant 1:4): 10.6 | Times Baseline Response, E^d [1]: 10.6 | Times Baseline Response, E^d [3]: 7.7 | Times Baseline Response, E^d (Table 11, AE peptide 64 μM, supernatant 1:8): 24.1 | Times Baseline Response, E^d (Table 12, AE peptide 1 μM (fourth value), supernatant 1:2): 5 | Times Baseline Response, E^d (Table 12, AE peptide 4 μM (third value), supernatant 1:2): 62 | Times Baseline Response, E^d (Table 12, AE peptide 16 μM (second value), supernatant 1:2): 115 | Times Baseline Response, E^d (Table 12, AE peptide 64 μM (first value), supernatant 1:2): 103 | Times Baseline Response, E^d (Table 13, AE peptide 1 μM (fourth value), supernatant 1:4): 2 | Times Baseline Response, E^d (Table 13, AE peptide 4 μM (third value), supernatant 1:4): 18 | Times Baseline Response, E^d (Table 13, AE peptide 16 μM (second value), supernatant 1:4): 65 | Times Baseline Response, E^d (Table 13, AE peptide 64 μM (first value), supernatant 1:4): 48 | Times Baseline Response, E^d (Table 14, AE peptide 64 μM, supernatant 1:4): 12.4 | Times Baseline Response, E^d [2]: 228 | Times Baseline Response, E^d [4]: 15.7 | Times Baseline Response, E^d (Table 17, AE peptide 4 μM, supernatant 1:4): 47 | Times Baseline Response, E^d (Table 18, AE peptide 64 μM, supernatant 1:4): 12.4

Ac-Y E MKLPKSAK-NH2 [AE136]
Times Baseline Response, E^d [5]: 0.9

Ac-LRMKLP N-NH2 (Ac-LRMKLPN-NH2) [AE246]
Times Baseline Response, E^d [3]: 7.3 | Times Baseline Response, E^d [4]: 21.8

Ac-Y L MKLPKSAK-NH2 [AE142]
Times Baseline Response, E^d [5]: 0.8

Ac-LRMK F PK-NH2 (Ac-LRMKFPK-NH2) [AE234]
Times Baseline Response, E^d [1]: 14.2

Ac-LRNKNPF-NH2 [AE348]
Times Baseline Response, E^d [2]: 13.1

Ac-LRLK HArg PK-NH2 [AE341]
Times Baseline Response, E^d [2]: 38.9

Ac-Y M MKLPKSAK-NH2 [AE141]
Times Baseline Response, E^d [5]: 1.1
